One test has as its target T1, ClpX (E. coli, UniProt P0A6H1 1-424).
T1 construct: ClpX, AAA+ unfoldase of Escherichia coli; concentrations are reported as ClpX hexamers; Purified as a native protein by earlier published methods; also called wildtype ClpX; source: E. coli BL21 (λDE3), overexpressed from a plasmid, purified as native protein
In words: negative-stain transmission electron microscopy; MinC (4 μM), MinD or MinD(R3E) (8 μM), ATP (8 mM), with or without ClpXP, or ClpXP with ATP alone, in copolymer assembly buffer; carbon/formvar grids, fixed with glutaraldehyde, stained with uranyl acetate. The conditions noted are these: both partners purified.

For the next test, the target named is T2, MinD(R3E) (E. coli, UniProt P0AEZ3 1-270, R3E).
T2 construct: MinD of Escherichia coli with Arg 3 changed to glutamate by site-directed mutagenesis; Same construct as m1 apart from R3E; source: E. coli BL21 (λDE3), overexpressed from a plasmid (pEt-MinD(R3E)), purified
T2 sequence (looked up): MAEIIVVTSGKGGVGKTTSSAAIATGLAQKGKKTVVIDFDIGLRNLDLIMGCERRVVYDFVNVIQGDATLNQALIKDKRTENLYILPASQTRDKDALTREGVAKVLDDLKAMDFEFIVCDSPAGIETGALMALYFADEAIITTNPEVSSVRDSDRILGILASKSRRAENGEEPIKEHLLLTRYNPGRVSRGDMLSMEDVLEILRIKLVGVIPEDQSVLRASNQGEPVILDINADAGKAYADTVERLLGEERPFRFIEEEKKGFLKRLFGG
Kind of test: 90° light scatter; MinC (4 μM) and MinD or MinD(R3E) (8 μM) in 20 mM MES pH 6.5, 100 mM KCl, 10 mM MgCl2; after 5 min ATP added alone or with ClpX (0.75 μM), ClpX(E185Q) (0.75 μM), ClpP (0.9 μM) or ClpX and ClpP, with an ATP-regenerating system; monitored for 30 min more. Conditions: both partners purified.

B1: ClpP (enzyme)
chain: not shown
notes: ClpP, serine protease of Escherichia coli; concentrations are reported as ClpP tetradecamers; Purified as a native protein by earlier published methods; source: E. coli BL21 (λDE3), overexpressed from a plasmid, purified as native protein; copies: 14
For B1, the binding result in the test with ClpX is “binds”.

B2: MinC (natural protein, E. coli, UniProt P18196 1-231, looked up)
chain: MSNTPIELKGSSFTLSVVHLHEAEPKVIHQALEDKIAQAPAFLKHAPVVLNVSALEDPVNWSAMHKAVSATGLRVIGVSGCKDAQLKAEIEKMGLPILTEGKEKAPRPAPTPQAPAQNTTPVTKTRLIDTPVRSGQRIYAPQCDLIVTSHVSAGAELIADGNIHVYGMMRGRALAGASGDRETQIFCTNLMAELVSIAGEYWLSDQIPAEFYGKAARLQLVENALTVQPLN
notes: concentrations are reported as MinC dimers; Purified as a native protein by earlier published methods; source: E. coli BL21 (λDE3), overexpressed from a plasmid (pEt-MinC), purified as native protein
Consider B2, for which the binding result in the test with MinD(R3E) is reported as “binds”.
